The text below walks through data of paper PMC4002761.

This experiment deals with Taxol-stabilized Cy5-microtubules. The experiment can be described thus: single-molecule TIRF microscopy.

In turn, “mouse GFP-fused FL MT3 (R943W) Kif21a (natural protein)” returned a fold increase in the frequency of active landing events against FL WT Kif21a of 10 fold.
For the substance “mouse GFP-fused FL MT1 (M356T) Kif21a (natural protein)”, the fold increase in the frequency of active landing events against FL WT Kif21a came out at 10 fold.
